Source: publication PMC4184034

System: dCas9 (SpyCas9 D10A/H840A) (Streptococcus pyogenes)
Test: DNA binding assay
Settings: not given in the material (Methods are in the supplement, not held)

crRNA:tracrRNA + 55-bp target dsDNA was tested, and the Kd was 4 nM.
